Reference: article doi:10.1101/713511

What was measured:
[1] = test system: T1, Atto550-SERF1a (human), O75920-2; assay: fluorescence anisotropy
T1 sequence: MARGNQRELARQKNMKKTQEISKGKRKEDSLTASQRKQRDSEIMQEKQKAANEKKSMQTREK

MOAG-4 (C. elegans) = assay: fluorescence anisotropy

Substance	Kd [1] [nM]	Kd (MOAG-4 (C. elegans)) [µM]
tRNA (type X-SA)	1100	
ACUGCUAGAGAUUUUCCACAU [Cy3-R21(-)]		4.79
